According to patent US20110243948A1 (LEXICON PHARMACEUTICALS, published 2011):
Positions count from the first letter of the chain named. Values joined by “and” are separate entries in the source; they are usually repeats but may differ in a detail not shown here. Equal values may be shown once. Values belong to the binder of their own block, whether it stands above or below them.

Tests used:
[1] = target: T1, mouse ANGPTL3 (mouse, UniProt Q9R182 17-455, limits assumed); test: cell-based or functional assay
T1 sequence: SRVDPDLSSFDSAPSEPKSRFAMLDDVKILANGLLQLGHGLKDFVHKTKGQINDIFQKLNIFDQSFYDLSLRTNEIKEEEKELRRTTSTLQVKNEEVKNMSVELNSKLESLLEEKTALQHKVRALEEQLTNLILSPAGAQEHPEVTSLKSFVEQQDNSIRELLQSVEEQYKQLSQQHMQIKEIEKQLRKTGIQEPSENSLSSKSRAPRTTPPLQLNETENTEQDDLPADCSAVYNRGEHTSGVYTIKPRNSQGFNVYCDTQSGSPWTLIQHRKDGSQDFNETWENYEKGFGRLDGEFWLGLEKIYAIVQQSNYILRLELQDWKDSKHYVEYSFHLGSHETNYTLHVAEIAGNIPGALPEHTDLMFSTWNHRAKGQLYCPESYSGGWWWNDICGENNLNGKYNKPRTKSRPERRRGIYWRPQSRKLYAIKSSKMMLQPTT

[2] = target: T2, SP1 peptide (synthetic peptide with the sequence of the SP1 region of ANGPTL3) (mouse and human (the sequence is the …)); test: SPR (BIACORE 3000), antibody captured on anti-mouse IgG Fc chip, SP1 peptide injected, 1:1 model
T2 construct: also called ANGPTL3 SP1; hANGPTL3 SP1 peptide
T2 peptide: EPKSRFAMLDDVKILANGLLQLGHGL
Protocol: (§1) The BIACORE® 3000 is a real-time biomolecular analysis system for detecting and quantifying protein-protein interactions using surface plasmon resonance technology. The following affinity constants were determined according to the manufacturer's instructions for the BIACORE® 3000 system: equilibrium dissociation constant (KD), association rate constant (kₒₙ), and dissociation rate constant (koff).
The BIACORE CM5 chip surface was coated with an anti-mouse IgG Fc by coupling 90 μg/ml of ImmunoPure Goat Anti-Mouse IgG Fc (Product No.: 31170, Pierce, Rockford, Ill. 61105) to the chip surface using an Amine Coupling Kit (Product No.: BR-1000-50, GE Healthcare, Uppsala Sweden). The antibody was then captured on the anti-mouse IgG Fc BIACORE chip surface by injecting the antibody at a flow rate of 10 μl/min for 30 sec. The association and dissociation phases, which are used to determine kₒₙ and koff constants, were generated by first injecting the SP1 peptide into the BIACORE® 3000 system having an antibody-coated chip surface for 2 minutes at a flow rate of 30 μl/min. […] The injection phase was used to determine the association rate constant, or kₒₙ. Following each injection, the SP1 peptide was dissociated from the antibody by flowing BIACORE HBS-EP buffer (Product No.: BR-1001-88, GE Healthcare, Uppsala Sweden) for 5 minutes over the peptide-antibody complex on the BIACORE CM5 chip surface. This dissociation phase was used to determine the dissociation rate constant, or koff. Prior to the next injection, the BIACORE chip surface was regenerated by injecting 10 mM HCl at a flow rate of 100 μl/min for 30 seconds.

[3] = target: T3, N'-hANGPTL3T (human, UniProt Q9Y5C1 20-243); test: SPR (BIACORE 3000), antigen amine-coupled to CM5 chip, Fab injected, 1:1 model
T3 construct: also called rN'-hANGPTL3T
T3 sequence: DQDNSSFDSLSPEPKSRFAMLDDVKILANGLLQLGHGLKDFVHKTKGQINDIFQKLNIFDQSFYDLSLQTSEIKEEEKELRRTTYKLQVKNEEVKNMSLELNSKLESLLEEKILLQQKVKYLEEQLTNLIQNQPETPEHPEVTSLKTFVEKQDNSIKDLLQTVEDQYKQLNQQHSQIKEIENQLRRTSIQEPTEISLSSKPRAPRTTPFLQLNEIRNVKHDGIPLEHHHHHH
Protocol: as §1
(§2) Affinity constants of the 4.7.1, 4.8.3, and 4.9.1 antibodies for N′-hANGPTL3T and hANGPTL3T protein antigens were each determined as follows. The BIACORE CM5 chip surface was coated with a protein antigen by coupling either 10 μg/ml of N′-hANGPTL3T or 20 μg/ml of hANGPTL3T to the chip surface using an Amine Coupling Kit (Product No.: BR-1000-50, GE Healthcare, Uppsala Sweden). The association and dissociation phases, which are used to determine the kₒₙ and koff constants, were generated by first injecting a Fab fragment of the antibody (generated using a Fab Preparation Kit (Product No.: 44885, Pierce, Rockford, Ill. 61105) according to the manufacturer's instructions) into the BIACORE® 3000 system having a coated chip surface for 2 minutes at a flow rate of 30 μl/min. […] The injection phase was used to determine the association rate constant, or kₒₙ. Following each injection, the Fab fragment was dissociated from the protein antigen by flowing BIACORE HBS-EP buffer (Product No.: BR-1001-88, GE Healthcare, Uppsala Sweden) for 5 minutes over the antigen-Fab complex on the BIACORE CM5 chip surface. This dissociation phase was used to determine the dissociation rate constant, or koff. Prior to the next injection, the BIACORE chip surface was regenerated by injecting 10 mM HCl at a flow rate of 100 μl/min for 30 seconds.

[4] = target: T4, hANGPTL3T (full-length HIS-tagged human ANGPTL3) (human, UniProt Q9Y5C1 17-460); test: as above
T4 construct: Human ANGPTL3 with a glycine and His6 at the C-terminus, purified from conditioned medium of infected CHO cells; also called full-length ANGPTL3T; human ANGPTL3T
T4 sequence: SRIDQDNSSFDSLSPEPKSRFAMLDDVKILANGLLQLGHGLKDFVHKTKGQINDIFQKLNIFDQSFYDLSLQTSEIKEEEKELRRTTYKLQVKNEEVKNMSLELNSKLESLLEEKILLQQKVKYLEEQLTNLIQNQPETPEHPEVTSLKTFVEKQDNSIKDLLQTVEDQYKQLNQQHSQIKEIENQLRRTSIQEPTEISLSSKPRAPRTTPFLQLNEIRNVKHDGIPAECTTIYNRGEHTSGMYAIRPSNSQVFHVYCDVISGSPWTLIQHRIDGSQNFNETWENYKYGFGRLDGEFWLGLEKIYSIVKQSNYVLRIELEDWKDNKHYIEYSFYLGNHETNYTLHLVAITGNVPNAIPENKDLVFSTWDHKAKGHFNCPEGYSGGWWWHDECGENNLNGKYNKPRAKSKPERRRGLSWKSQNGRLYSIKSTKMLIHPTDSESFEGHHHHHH
Protocol: as §1, §2

[5] = target: T2, SP1 peptide (synthetic peptide with the …); test: antibody capture ELISA (FIG. 9)
[6] = target: T4, hANGPTL3T (full-length HIS-tagged human …); test: ELISA (data not shown)

Kd [3]: 45.4 nM and 55 nM
koff [3]: 0.00593 s⁻¹ and 0.00734 s⁻¹
kon [3]: 131000 M⁻¹ s⁻¹ and 133000 M⁻¹ s⁻¹
Kd [4]: 48.1 nM and 45.2 nM
koff [4]: 0.00622 s⁻¹ and 0.00777 s⁻¹
kon [4]: 129000 M⁻¹ s⁻¹ and 172000 M⁻¹ s⁻¹
B3: Fab fragment of antibody 4.9.1 (Fab, V domains shown)
VH: EVQLQQSGPELVKPGASVKMSCKASGYTFTSYVMHWVKQKPGQGLEWIGYINPYNDGTKYNENFKGKATLTSDKSSSTAYMEFSSLTSEDSAVYYCAREGDYYGYFDYWGQGTTLTVSS
VL: DIQMTQTTSSLSASLGDRVTISCRASQDIRNYLNWYQQKPDGTVKLLIYYTSRLHSGVPSRFSGSGSGTDYSLTISNLEQEDIATYFCQQGNTLPPTFGGGTKLEIKR

rescue of LPL activity (percentage increase in LPL activity in the presence of both ANGPTL3 and anti-ANGPTL3 antibody relative to ANGPTL3 alone) [1]: > 50%
Kd [2]: 46.1 nM
koff [2]: 0.00778 s⁻¹
kon [2]: 169000 M⁻¹ s⁻¹
B4: antibody 4.9.1 (antibody, IgG1, V domains shown)
VH: B3 VH
VL: B3 VL
notes: Biotinylated in the alanine-scanning ELISA

binding result [6]: binds
Kd [2]: 1.78 nM
koff [2]: 0.00193 s⁻¹
kon [2]: 1.08e+06 M⁻¹ s⁻¹
B8: antibody 5.50 (antibody, IgG2b, V domains shown)
VH: EVQLQQSGPELVKPGASVKISCKASGFTFTDYYMNWVKQSHGESLEWIGDINPNNGGTIYNQKFRGKATLTVDKSSSTAYMELRSLTSEDSAVYYCVRLPWYFDVWGTGTTVTVSS
VL: DVLMTQTPLSLPVSLGDQASISCRSSQSILHSNGNTYLEWFLQKPGQSPKLLIYKVSNRFSGVPDRFSGSGSGTDFTLKISRVEAEDLGVYYCFQGSHVPYTFGGGTKLEIKR
notes: as for B4

The next lines start with the binder.

B1: antibody 4.7.1 (antibody, IgG2b, V domains shown)
VH: B3 VH with I51F, N63K, F83L
VL: B3 VL with R30S, Y32F
notes: as for B4
rescue of LPL activity (percentage increase in LPL activity in the presence of both ANGPTL3 and anti-ANGPTL3 antibody relative to ANGPTL3 alone) [1]: > 50%
Kd [2]: 26.1 nM
koff [2]: 0.00546 s⁻¹
kon [2]: 209000 M⁻¹ s⁻¹

B2: Fab fragment of antibody 4.7.1 (Fab, V domains shown)
VH: B3 VH with I51F, N63K, F83L
VL: B3 VL with R30S, Y32F
Kd [3]: 49.5 nM and 77.5 nM
koff [3]: 0.00915 s⁻¹ and 0.00899 s⁻¹
kon [3]: 185000 M⁻¹ s⁻¹ and 116000 M⁻¹ s⁻¹
Kd [4]: 45.3 nM and 117 nM
koff [4]: 0.00796 s⁻¹ and 0.00953 s⁻¹
kon [4]: 176000 M⁻¹ s⁻¹ and 81200 M⁻¹ s⁻¹

B5: antibody 4.8.3 (antibody, IgG2a, V domains shown)
VH: B3 VH with T30I, Y32C, N63K, F83L
VL: B3 VL with D1E, R24W, R30N, E79K
notes: as for B4
rescue of LPL activity (percentage increase in LPL activity in the presence of both ANGPTL3 and anti-ANGPTL3 antibody relative to ANGPTL3 alone) [1]: > 50%
binding result [5]: binds

B6: Fab fragment of antibody 4.8.3 (Fab, V domains shown)
VH: B3 VH with T30I, Y32C, N63K, F83L
VL: B3 VL with D1E, R24W, R30N, E79K
Kd [3]: 210 nM and 251 nM
koff [3]: 0.019 s⁻¹ and 0.0275 s⁻¹
kon [3]: 90000 M⁻¹ s⁻¹ and 109000 M⁻¹ s⁻¹
Kd [4]: 970 nM and 450 nM
koff [4]: 0.0216 s⁻¹ and 0.0273 s⁻¹
kon [4]: 22300 M⁻¹ s⁻¹ and 60000 M⁻¹ s⁻¹

B7: antibody 5.35 (antibody, IgG2a, V domains shown)
VH: QVTLKESGPGILHPSQTLTLTCSFSGFSLNTFGLAVGWIRQPSGKGLEWLGHIWWDDHKYYNGVLKSRLTISKDSSKKQVFLRIANVDTADTARYYCARLETGTGFAYWGQGTLVTVSA
VL: DIVLTQSTPSVPVTPGESVSISCRSSKSLLDSNGITYLYWFLQRPGQSPQLLIYRMSKLASGVPDRFSGSGSETAFTLRISRVEAEDVGVYYCMQPLEYPFTFGAGTKLELNG
notes: as for B4
binding result [6]: binds
Kd [2]: 1.8 nM
koff [2]: 0.0015 s⁻¹
kon [2]: 835000 M⁻¹ s⁻¹
